Reference: patent US20210079089A1 (SURROZEN OPERATING, published 2021)
One block for each binder: values may come before it.

Legend:
[1] = target: T1, LRP6e1e2 (UniProt O75581 20-630, limits assumed, C-terminally biotinylated); test: Octet BLI, affinity class
T1 construct: domain: E1E2; also called LRP6 E1E2 domains
T1 sequence (looked up): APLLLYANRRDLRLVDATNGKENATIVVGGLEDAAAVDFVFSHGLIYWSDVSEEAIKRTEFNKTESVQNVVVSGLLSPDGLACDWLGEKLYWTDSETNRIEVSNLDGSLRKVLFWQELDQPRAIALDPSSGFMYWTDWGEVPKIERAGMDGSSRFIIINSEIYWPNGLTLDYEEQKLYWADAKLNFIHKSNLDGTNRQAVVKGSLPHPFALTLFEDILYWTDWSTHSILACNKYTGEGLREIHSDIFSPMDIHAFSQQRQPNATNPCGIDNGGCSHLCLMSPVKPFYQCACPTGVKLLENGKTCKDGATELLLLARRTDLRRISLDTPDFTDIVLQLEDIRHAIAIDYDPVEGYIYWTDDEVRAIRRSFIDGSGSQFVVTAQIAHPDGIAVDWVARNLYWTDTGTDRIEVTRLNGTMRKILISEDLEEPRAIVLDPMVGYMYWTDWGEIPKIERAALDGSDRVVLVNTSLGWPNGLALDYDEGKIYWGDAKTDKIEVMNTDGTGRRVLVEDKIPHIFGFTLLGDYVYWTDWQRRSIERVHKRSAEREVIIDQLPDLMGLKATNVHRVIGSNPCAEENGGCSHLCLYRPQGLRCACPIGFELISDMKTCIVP
Protocol: (§1) Binding kinetics of antibody fragments to LRP5 extracellular domain (LRP5 ECD) and/or LRP6 extracellular domain (LRP6 ECD) protein targets was determined by bio-layer interferometry (BLI) using Octet Red 96 (PALL ForteBio, Fremont, Calif.) instruments at 30° C., 1000 rpm with streptavidin (SA) biosensors. C-terminal biotinylated LRP ECD recombinant protein was diluted to 20 nM in the running buffer (PBS, 0.05% Tween-20, 0.5% BSA, pH 7.2) and captured to the SA biosensor until coupling length reached 0.2 nm. Following capture of the LRP5 or LRP6, the SA biosensor with captured biotinylated-LRP5 or biotinylated LRP6 was dipped into wells containing the relevant antibody fragment at […] (0, 1.37, 4.12, 12.4, 37, 111.1, 333.3, 1000 nM) in running buffer, plus a well with only running buffer as a reference channel. KD was determined by global fitting, 1:1 binding model according to manufacturer recommended settings.

[2] = target: T2, LRP6E3E4_O75581_631-1246 (Homo sapiens (Human), UniProt O75581 631-1246, biotinylated in the BLI/SPR assays (C-terminal biotin acceptor peptide)); test: Octet BLI, affinity class
T2 construct: The entry holds residues 631-1246 of UniProt O75581 followed by a biotin acceptor peptide and eight His
T2 sequence: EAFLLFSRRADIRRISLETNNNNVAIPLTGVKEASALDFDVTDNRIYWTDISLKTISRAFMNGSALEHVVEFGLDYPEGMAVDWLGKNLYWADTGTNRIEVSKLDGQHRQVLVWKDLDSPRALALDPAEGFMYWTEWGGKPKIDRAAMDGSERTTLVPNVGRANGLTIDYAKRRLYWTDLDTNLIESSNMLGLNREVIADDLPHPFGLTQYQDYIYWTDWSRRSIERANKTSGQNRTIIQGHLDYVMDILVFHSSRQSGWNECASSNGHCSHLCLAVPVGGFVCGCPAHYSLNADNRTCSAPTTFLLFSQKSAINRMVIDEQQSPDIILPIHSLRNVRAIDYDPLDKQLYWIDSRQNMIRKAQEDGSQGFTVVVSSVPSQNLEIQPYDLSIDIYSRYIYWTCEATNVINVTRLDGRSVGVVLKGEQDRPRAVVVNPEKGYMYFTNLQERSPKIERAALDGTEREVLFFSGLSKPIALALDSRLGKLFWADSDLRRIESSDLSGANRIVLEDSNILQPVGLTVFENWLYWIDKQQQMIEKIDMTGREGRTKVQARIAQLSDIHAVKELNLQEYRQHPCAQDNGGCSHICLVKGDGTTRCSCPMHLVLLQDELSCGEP
Protocol: as §1

[3] = target: T2, LRP6E3E4_O75581_631-1246; test: Octet BLI or BIAcore SPR; Table 1B (heavy-chain-only clones)
[4] = target: T2, LRP6E3E4_O75581_631-1246; test: Octet BLI or BIAcore SPR
[5] = target: T3, biotinylated-LRP6 CRD (UniProt O75581 631-1246, limits assumed, biotinylated); test: Octet BLI, biotinylated LRP6; wild type 009S-E04, not an alanine mutant
T3 construct: LRP6 has no CRD
T3 sequence (looked up): T2 sequence
Protocol: as §1
One antibody fragment, 009S-E04, was selected for alanine-scanning mutagenesis of CDRs, and the respective LRP6 binding affinities of the various mutants were determined by Octet BLI as described in Example 1.

[6] = target: T4, LRP6E3E4_O75581_631-1246 (Homo sapiens (Human), UniProt O75581 631-1246); test: co-crystal structure (figure legend)
T4 construct: also called LRP6E3E4 construct used for structural studies
T4 sequence: T2 sequence
Protocol: (§2) Structure of Lrp6E3E4:VHH/Fab complexes were determined by molecular replacement method using Phaser [Phaser crystallographic software. A. J. McCoy, R. W. Grosse-Kunstleve, P. D. Adams, M. D. Winn, L. C. Storoni, and R. J. Read. J Appl Crystallogr 40, 658-674 (2007)] with published structures Lrp6E3E4 [PDB code: 4AOP; Chen S, Bubeck D, MacDonald B T, Liang W X, Mao J H, Malinauskas T, Llorca O, Aricescu A R, Siebold C, He X, Jones E Y. Dev. Cell 21 848-61 (2011)] and a VHH or sdAb [PDB code: 6B20, chain E; Gulati S, Jin H, Masuho I, Orban T, Cai Y, Pardon E, Martemyanov K A, Kiser P D, Stewart P L, Ford C P, Steyaert J, Palczewski K. Nat Commun 91996 (2018)], followed by refinement and validation by MolProbity as implemented in Phenix [PHENIX: a comprehensive Python-based system for macromolecular structure solution. P. D. Adams, P. V. Afonine, G. Bunkoczi, V. B. Chen, I. W. Davis, N. Echols, J. J. Headd, L. W. Hung, G. J. Kapral, R. W. Grosse-Kunstleve, A. J. McCoy, N. W. Moriarty, R. Oeffner, R. J. Read, D. C. Richardson, J. S. Richardson, T. C. […]
(§3) Diffraction quality crystals of Lrp6E3E4:VHH36 (concentration=14.0 mg/mL) were obtained by grid-screen optimization in a condition containing 1.6 M ammonium sulfate and 0.1 M Tris pH 8.2. […] Structure of Lrp6E3E4:VHH36 complex was determined at a resolution of 2.70 Å, and refined to Rcryst and Rfree factors of 18.6% and 22.8%, respectively.

[7] = target: T2, LRP6E3E4_O75581_631-1246; test: co-crystal structure, column Antigen
Protocol: as §2, §3

B1: 009S-D04 (VHH)
VHH: QVKLEESGGGLVQPGGSLRLSCETSATIVSIYRINWYRQAPGKQREWVAGITSSGRTIYADSVKGRFTISRDNAKNTVYLQMNNLKPEDTAVYYCNAASTVTAWPYYGPDYWGKGTLVTVSS
Kd [1]: < 500 nM | Kd [2]: < 500 nM | Kd [3]: > 500 nM

B2: 009S-E04 (VHH)
VHH: DVQLVESGGGLVQAGGSLRLACAGSGRIFAIYDIAWYRHPPGNQRELVAMIRPVVTEIDYADSVKGRFTISRNNAMKTVYLQMNNLKPEDTAVYYCNAKRPWGSRDEYWGQGTQVTVSS
Kd [4]: < 500 nM | Kd [2]: < 500 nM | Kd [5]: < 100 nM

Now from value to binder:

binding result [6]: binds
B3: VHH36 (013S-D05) (VHH)
VHH: QVKLEESGGGLVQAGGSLRLSCAASGRIFSIYDMGWFRQAPGKEREFVSGIRWSGGTSYADSVKGRFTISKDNAKNTIYLQMNNLKAEDTAVYYCGSRGYWGQGTLVTVSS
modifications: Gln1 modified as pyroglutamate
notes: construct of the crystal structure

binding result [7]: binds
B4: VHH36 (013S-D05) (VHH)
VHH: B3 VHH
modifications: Gln1 modified as pyroglutamate (in the crystal structure)
notes: Construct of the crystal structure, with C-terminal GSGSG-His6; the complex was treated with carboxypeptidase A and B before crystallisation
